We go through 6 molecules from paper PMC4784862, “DNA Sequence Determinants Controlling Affinity, Stability and Shape of DNA Complexes Bound by the Nucleoid Protein Fis”.

As usually defined, the Kd is the free concentration of one partner at which half of the binding sites on the other are occupied at equilibrium, for simple one-to-one binding.

Holding throughout (details): protein: recombinant; chain copies: 2; label: 5'-32P
Series [1] has as its target T1, Fis WT (UniProt P0A6R3 1-98). Put plainly: EMSA; t1/2 36 min; EMSA: 20 mM Hepes pH 7.5, 0.15 M NaCl, 5% glycerol, 0.5 mg/ml BSA, 1 mM EDTA, 1 mM DTT, 0.1 nM 32P 27 bp probe, 50 ug/ml poly dI/dC; temperature not stated. On the technique in general: A gel shift assay detects complexes by their altered migration in electrophoresis.
The target in series [2] is T1, Fis WT. Briefly: EMSA; t1/2 30 min; EMSA: 20 mM Hepes pH 7.5, 0.15 M NaCl, 5% glycerol, 0.5 mg/ml BSA, 1 mM EDTA, 1 mM DTT, 0.1 nM 32P 27 bp probe, 50 ug/ml poly dI/dC; temperature not stated.
Series [3] deals with T1, Fis WT. Put plainly: X-ray crystallography; 3.5 A, partially refined; EMSA: 20 mM Hepes pH 7.5, 0.15 M NaCl, 5% glycerol, 0.5 mg/ml BSA, 1 mM EDTA, 1 mM DTT, 0.1 nM 32P 27 bp probe, 50 ug/ml poly dI/dC; temperature not stated.
The target in series [4] is T1, Fis WT. Briefly: EMSA; t1/2 25 min; EMSA: 20 mM Hepes pH 7.5, 0.15 M NaCl, 5% glycerol, 0.5 mg/ml BSA, 1 mM EDTA, 1 mM DTT, 0.1 nM 32P 27 bp probe, 50 ug/ml poly dI/dC; temperature not stated.
Series [5] deals with T1, Fis WT. Put plainly: EMSA; t1/2 44 min; EMSA: 20 mM Hepes pH 7.5, 0.15 M NaCl, 5% glycerol, 0.5 mg/ml BSA, 1 mM EDTA, 1 mM DTT, 0.1 nM 32P 27 bp probe, 50 ug/ml poly dI/dC; temperature not stated.
Series [6] concerns the target T1, Fis WT. Put plainly: EMSA; t1/2 38 min; EMSA: 20 mM Hepes pH 7.5, 0.15 M NaCl, 5% glycerol, 0.5 mg/ml BSA, 1 mM EDTA, 1 mM DTT, 0.1 nM 32P 27 bp probe, 50 ug/ml poly dI/dC; temperature not stated.

T1 sequence (P0A6R3 whole entry): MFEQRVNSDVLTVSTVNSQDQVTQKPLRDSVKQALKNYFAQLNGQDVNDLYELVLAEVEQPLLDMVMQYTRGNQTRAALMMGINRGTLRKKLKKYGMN

B1: F1±10A (dsDNA)
DNA 1: AAAATTGTTTGAATTTTGAGCAATTTT
DNA 2: AAAATTGCTCAAAATTCAAACAATTTT
On to B1, for which the Kd in series [1] stood at 0.5 ± 0.1 nM.

B2: F1±9C (dsDNA)
DNA 1: AAATCTGTTTGAATTTTGAGCAGATTT
DNA 2: AAATCTGCTCAAAATTCAAACAGATTT
In the case of B2, in series [2], the Kd worked out at 0.3 ± 0.1 nM.

B3: F36 (dsDNA)
DNA 1: AAATTTGTTTGAATCTCGAGCAAATTT
DNA 2: AAATTTGCTCGAGATTCAAACAAATTT
B3: the binding result in series [3] is recorded as “binds”.

B4: F1±9G (dsDNA)
DNA 1: AAATGTGTTTGAATTTTGAGCACATTT
DNA 2: AAATGTGCTCAAAATTCAAACACATTT
For B4, the Kd in series [4] came to 0.6 ± 0.2 nM.

B5: F1±10C (dsDNA)
DNA 1: AAACTTGTTTGAATTTTGAGCAAGTTT
DNA 2: AAACTTGCTCAAAATTCAAACAAGTTT
Take B5: in series [5], the Kd is 0.3 ± 0.1 nM.

B6: F1±10G (dsDNA)
DNA 1: AAAGTTGTTTGAATTTTGAGCAACTTT
DNA 2: AAAGTTGCTCAAAATTCAAACAACTTT
For B6, the Kd in series [6] is 0.5 ± 0.1 nM.
